Assay [1] concerns the target T1, human CD27 on human T cells (human, UniProt P26842 21-260).
T1 construct: Native CD27 on primary human T cells; also called hCD27
T1 sequence: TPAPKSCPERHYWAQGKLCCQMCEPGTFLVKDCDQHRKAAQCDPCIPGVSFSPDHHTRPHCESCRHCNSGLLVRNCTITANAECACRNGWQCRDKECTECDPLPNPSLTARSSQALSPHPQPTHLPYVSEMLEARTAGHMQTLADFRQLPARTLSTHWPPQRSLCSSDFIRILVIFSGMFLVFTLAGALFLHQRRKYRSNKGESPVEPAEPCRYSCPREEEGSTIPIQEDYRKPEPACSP
Description: flow cytometry on human T cells, n=5; highest of the n=5 determinations.

Assay [2] addresses T2, human CD27 (hCD27), form in the assay not stated (human, UniProt P26842 20-260, limits assumed).
T2 construct: Whole entry named
T2 sequence: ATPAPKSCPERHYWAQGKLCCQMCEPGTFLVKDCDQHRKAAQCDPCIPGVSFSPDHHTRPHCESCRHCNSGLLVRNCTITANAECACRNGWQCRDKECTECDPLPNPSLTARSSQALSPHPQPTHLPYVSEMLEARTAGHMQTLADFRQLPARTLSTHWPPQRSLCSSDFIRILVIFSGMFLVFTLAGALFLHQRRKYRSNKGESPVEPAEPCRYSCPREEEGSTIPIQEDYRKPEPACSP
Description: Scatchard analysis; format not stated; Scatchard analysis, not SPR; antibody, format not stated.

Assay [3] deals with T1, human CD27 on human T cells. Description: flow cytometry on human T cells, n=5; lowest of the n=5 determinations.
The target is the same in assay [4]. Description: flow cytometry on human T cells, FIG. 1A.
Assay [5] shares this target. Nature of the assay: flow cytometry on human T cells pretreated with 10 µg/ml human CD70; bound antibody detected with labelled anti-human IgG.
Assay [6] addresses T3, cynomolgus CD27 on cynomolgus T cells (cynomolgus monkey).
T3 construct: whole, on cells; also called cCD27
Description: estimated in vivo serum EC50 for 50% CD27 receptor occupancy in monkey whole blood, Emax model. From the text:
Criteria for evaluation included clinical observations, hematology, PK, CD27 receptor occupancy (RO), circulating sCD27 levels, lymphocyte subset analysis, cytokine levels, and ADA determination. Blood samples were obtained prior to dosing and at various intervals up to 42 days post-dose. Overall, there were no adverse findings, including no adverse clinical observations and no changes in hematologic parameters. There were time- and dose-dependent increases in circulating sCD27 levels. […] There were no significant changes in circulating lymphocyte subsets including CD4⁺, Treg (Foxp3⁺/CD4⁺), CD8⁺ T, CD20⁺ B, and NK cells, or circulating cytokine levels.

The target in assay [7] is T3, cynomolgus CD27 on cynomolgus T cells. Nature of the assay: flow cytometry on cynomolgus T cells, FIG. 1B. In general terms: Flow cytometry measures light scatter and fluorescence of single cells or particles in a stream.
Assay [8] addresses T1, human CD27 on human T cells. Nature of the assay: cell-based or functional assay.
Assay [9] has the same target. Description: flow cytometry on human T cells, n=5; mean of n=5.
For assay [10], the target named is T3, cynomolgus CD27 on cynomolgus T cells. Description: binding to cynomolgus T cells.
Assay [11] deals with T4, hCD27-mouseFc or hCD27-Histag proteins (human, UniProt P26842 20-191).
T4 construct: not shown: mouse Fc or His tag
T4 sequence: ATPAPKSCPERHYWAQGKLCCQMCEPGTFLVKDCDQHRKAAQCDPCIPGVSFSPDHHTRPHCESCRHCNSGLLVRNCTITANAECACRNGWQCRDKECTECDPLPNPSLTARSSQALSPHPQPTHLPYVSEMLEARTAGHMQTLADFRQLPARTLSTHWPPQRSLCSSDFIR
Nature of the assay: SPR at 25 C, Fab with hCD27-mouseFc or hCD27-Histag, 1:1 fit binding model; 25 C; lower end of the measured values. As for the experimental part: (§1) The measured values were 41-44 nM at 37° C. and 13-16 nM at 25° C. […] The kinetic analysis used a 1:1 fit binding model.

The target of assay [12] is T4, hCD27-mouseFc or hCD27-Histag proteins. Description: SPR at 37 C, Fab with hCD27-mouseFc or hCD27-Histag, 1:1 fit binding model; 37 C; lower end of the measured values. Here is the method:
as §1

The target is the same in assay [13]. Description: SPR; due to an increased dissociation rate, association rate unchanged. As for the experimental part:
as §1

The target of assay [14] is T1, human CD27 on human T cells. Nature of the assay: blocking assay by flow cytometry: human T cells with antibody in the presence of 10 µg/ml soluble human CD70; blocked ligand CD70 detected with labelled anti-CD70. The text has this: Binding of the Abs in the assay was detected by a labeled anti-human IgG Ab (*, ahIgG). […] Binding of the ligand blocking 1F5 Ab was not detected. […] CD70 was detected by a labeled anti-CD70 Ab (*, aCD70). […] Binding of CD70 decreased with increasing concentrations of the ligand blocking 1F5 Ab. “MFI,” “hIgG1,” and “FL2” are as described for FIG. 1. “FL1” in (B) indicates measurement in fluorescence channel 1 (FL1).
The presence or absence of binding of the Abs was detected using a labeled anti-human IgG Ab. […] See FIG. 2A, showing a schematic of the assay, and FIG. 2B, showing a graph of the results. Binding of the ligand blocking 1F5 Ab was not detected. Id. […] CD70 was detected by a labeled anti-CD70 Ab.

A value given as a limit tells only on which side of the number the result lay.

B1: HuMAb BMS-986215 (human IgG1 anti-human CD27 monoclonal antibody) (antibody, V domains shown)
VH: QVQLVQSGSEVKKPGASVKVSCKASGYTFTTYAMNWVRQAPGQGLEWMGWINTNTGNPTYAQGFTGRFVFSLDTSVNTAYLQISSLKAEDTAVYYCARDFGGFDYWGQGTLVTVSS
VL: AIQLTQSPSSLSASVGDRVTITCRASQGISSALAWYQQKPGKAPKLLINDASSLESGVPSRFSGSGSGTDFTLTISSLQPEDFATYYCQQFNNYPRTFGQGTKVEIKR
modifications: N-terminal glutamine to pyroglutamate; N-glycan at N297 (Table 4)
notes: Full-length human IgG1 produced in CHO cells; derived from clone 16D9
One may read the EC50 as the concentration giving half of the maximal effect. One may read the Kd as the free concentration of one partner at which half of the binding sites on the other are occupied at equilibrium, for simple one-to-one binding. Broadly, the EC50 (read off the curve) is the concentration giving half of the maximal effect. On to B1, for which the EC50 in [1] lay in the range of 0.022 to 0.076 nM. Moreover, in [2], binding was characterised by a dissociation constant (Kd) of 0.045 nM. The same molecule displayed an EC50 in [3] of 0.022 to 0.076 nM. The molecule also registered an EC50 in [4] of 0.0221 nM. The “EC50 (read off the curve)” value in [5] was around 0.1 nM. For the same molecule, the EC50 in assay [6] is 0.08 nM. Also, in [7], the EC50 turned out to be 0.092 nM. Further, in [8], the “IFN-γ production of CD4+CD45RO+ memory T cells, CHO-svCD3-CD32a co-culture (EC50)” value turned out to be 0.015 nM; the “IFN-γ secretion in FIG. 6(B), CHO-svCD3-CD32a co-culture (EC50)” value was 0.00624 nM; the “IFN-γ secretion, CHO-svCD3-CD32a co-culture (mean EC50)” value was 0.0078 nM; the “IL-2 release from SEB-stimulated PBMCs, with PD-1 blockade against without” value was 2 fold. Moreover, in assay [8], the “T cell proliferation in FIG. 6(A), CHO-svCD3-CD32a co-culture (EC50)” value was found to be 0.0045 nM; the “T cell proliferation, CHO-svCD3-CD32a co-culture (mean EC50)” value came to 0.009 nM; the “induction of IFN-γ secretion from CD4+CD25- T cells co-cultured with B cells, 100 ng/ml SEB, antibody at 10 µg/ml” value is above 2.5 fold; the “proliferation of CD4+CD45RO+ memory T cells, CHO-svCD3-CD32a co-culture (EC50)” value turned out to be 0.005 nM. In assay [9], this molecule yielded an EC50 of 0.044 nM. In assay [10], this molecule had an EC50 of around 5 ng/mL.

B2: Fab fragment of BMS-986215 (Fab, V domains shown)
VH: QVQLVQSGSEVKKPGASVKVSCKASGYTFTTYAMNWVRQAPGQGLEWMGWINTNTGNPTYAQGFTGRFVFSLDTSVNTAYLQISSLKAEDTAVYYCARDFGGFDYWGQGTLVTVSS
VL: AIQLTQSPSSLSASVGDRVTITCRASQGISSALAWYQQKPGKAPKLLINDASSLESGVPSRFSGSGSGTDFTLTISSLQPEDFATYYCQQFNNYPRTFGQGTKVEIK
As for B2, the Kd in [11] fell in the range of 13 to 16 nM; in assay [12], 41 to 44 nM. Further, in assay [13], the “fold loss of affinity from 25° C. to 37° C.” value was found to be 3 fold.

B3: Reference HuMAb 1F5 (human anti-hCD27 mAb, ligand blocking) (antibody, human IgG1, kappa, V domains shown)
VH: QVQLVESGGGVVQPGRSLRLSCAASGFTFSSYDMHWVRQAPGKGLEWVAVIWYDGSNKYYADSVKGRFTISRDNSKNTLYLQMNSLRAEDTAVYYCARGSGNWGFFDYWGQGTLVTVSS
VL: DIQMTQSPSSLSASVGDRVTITCRASQGISRWLAWYQQKPEKAPKSLIYAASSLQSGVPSRFSGSGSGTDFTLTISSLQPEDFATYYCQQYNTYPRTFGQGTKVEIKR
notes: also called 1F5-IgG1
In assay [4], B3 came in with an EC50 of 1.09 nM. Further, a half-maximal response in [7] (EC50) required 1.8 nM. Also, the “IC50 (read off the curve)” value in [14] was around 1 nM. In assay [8], the “IFN-γ production of CD4+CD45RO+ memory T cells, CHO-svCD3-CD32a co-culture (EC50)” value was 0.089 nM; the “IFN-γ secretion in FIG. 6(B), CHO-svCD3-CD32a co-culture (EC50)” value was 0.0402 nM; the “T cell proliferation in FIG. 6(A), CHO-svCD3-CD32a co-culture (EC50)” value was 0.0357 nM; the “proliferation of CD4+CD45RO+ memory T cells, CHO-svCD3-CD32a co-culture (EC50)” value came out at 0.073 nM.
